The test concerns the target human amyloid beta 42 (Aβ42) (human). As to the kind of experiment: co-incubation of equimolar peptides for one month at 37 C, dialysis, 10 kDa filter concentration, SDS gel. As to the method: Various means were studied to enhance the immune potential of amyloid peptides. One such approach was derived from experiments with samples of human plasma and brain tissues having a complex of peptides that expressed epitopes for both human Aβ peptide and human RAGE. This involved the incubation of equimolar amounts of Aβ and an immunogenic fragment of RAGE for one month in sterile water at 37° C.
After incubation, the solution was dialyzed to remove unused products. The dialyzed solution was then concentrated in a centrifugation filter with a 10,000 molecular weight cutoff. […] The concentrated complex was dissolved in water and administered orally to rats on three occasions with two weeks between administrations. Two weeks after the last administration plasma samples were obtained for the determination of Aβ or RAGE titers.

Sequence of human amyloid beta 42 (Aβ42) (human) (peptide, as listed by the source): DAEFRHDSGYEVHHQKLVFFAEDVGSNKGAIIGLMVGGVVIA

B1: immunogenic fragment of RAGE, amino acids 23 to 54 of human RAGE (RAGE23-54) (peptide)
peptide: AQNITARIGEPLVLKCKGAPKKPPQRLEWKLN
notes: also called RAGE fragment
B1: the binding result was “binds”.

Source of the values: patent US20100297160A1 (MEDICAL COLLEGE OF GEORGIA RESEARCH INSTITUTE, published 2010).
